Data on 24 molecules can be found in patent US12630600B2 (MEDIMMUNE LIMITED, priority 2022, dated 2026).

Starred links: 1 amine or outer side, 2 acyl side, 3 side chain; linkers in the order of their positions; H or OH if unused. Non-standard residues stand in square brackets, D forms with d. Groups on a side chain read outwards from the residue. No end group written: not given here. *: point of attachment. C20 diacid = O=C(O)CCCCCCCCCCCCCCCCCCC(=O)*; C18 diacid = O=C(O)CCCCCCCCCCCCCCCCC(=O)*; γGlu = O=C(O)[C@H](CCC(=O)[*:2])N[*:1]; αMeF = C[C@](N)(Cc1ccccc1)C(=O)O; PEG4 = NCCOCCOCCOCCOCCC(=O)O; AEEA = NCCOCCOCC(=O)O; Aib = CC(C)(N)C(=O)O

One assay has as its target human GLP-1 receptor (human, UniProt P43220). Put plainly: cell-based or functional assay.
The next assay addresses human glucagon receptor (human, UniProt P47871). Put plainly: cell-based or functional assay.

Regarding H[Aib]HGS[αMeF]TSDVSK[αMeF]LDSRAAK([PEG4-γGlu-C20 diacid])D[αMeF]VQ[Aib]IANT-NH2 [Peptide 267], the “hGLP-1R EC50 (pM)” value with human GLP-1 receptor turned out to be 65.6 pM. The “hGluc-R EC50 (pM)” value with human glucagon receptor was 128 pM.

In the case of H[Aib]HGS[αMeF]TSDVSKYLDSRAAK([AEEA-AEEA-γGlu-C18 diacid])D[αMeF]VQ[Aib]IANT-NH2 (not fully specified; also: X13: αMePhe or Y (table)) [Peptide 286], the “hGLP-1R EC50 (pM)” value with human GLP-1 receptor stood at 31.6 pM. Also, the “hGluc-R EC50 (pM)” value with human glucagon receptor turned out to be 53 pM.

For the molecule H[Aib]HGS[αMeF]TSDVSK[αMeF]LDSRAAK([AEEA-AEEA-γGlu-C18 diacid])D[αMeF]VQWIANT-NH2 [Peptide 288], in the assay with human GLP-1 receptor, the “hGLP-1R EC50 (pM)” value was found to be 42.7 pM. Moreover, the “hGluc-R EC50 (pM)” value in the assay with human glucagon receptor is 26.9 pM.

Turning to H[Aib]HGS[αMeF]TSDVSK[αMeF]LDSRAAK([AEEA-C18 diacid])D[αMeF]VQ[Aib]IANT-NH2 [Peptide 273], the “hGLP-1R EC50 (pM)” value with human GLP-1 receptor is 22.1 pM. The “hGluc-R EC50 (pM)” value in the assay with human glucagon receptor came out at 23.3 pM.

B1: Peptide 268 (peptide)
peptide: H[Aib]HGS[αMeF]TSDVSK[αMeF]LDSRAAK([AEEA-γGlu-C20 diacid])D[αMeF]VQ[Aib]IANT-NH2
modifications: N-terminus assumed
SMILES: CC[C@H](C)[C@H](NC(=O)C(C)(C)NC(=O)[C@H](CCC(N)=O)NC(=O)[C@@H](NC(=O)[C@](C)(Cc1ccccc1)NC(=O)[C@H](CC(=O)O)NC(=O)[C@H](CCCCNC(=O)COCCOCCNC(=O)CC[C@H](NC(=O)CCCCCCCCCCCCCCCCCCC(=O)O)C(=O)O)NC(=O)[C@H](C)NC(=O)[C@H](C)NC(=O)[C@H](CCCNC(=N)N)NC(=O)[C@H](CO)NC(=O)[C@H](CC(=O)O)NC(=O)[C@H](CC(C)C)NC(=O)[C@](C)(Cc1ccccc1)NC(=O)[C@H](CCCCN)NC(=O)[C@H](CO)NC(=O)[C@@H](NC(=O)[C@H](CC(=O)O)NC(=O)[C@H](CO)NC(=O)[C@@H](NC(=O)[C@](C)(Cc1ccccc1)NC(=O)[C@H](CO)NC(=O)CNC(=O)[C@H](Cc1c[nH]cn1)NC(=O)C(C)(C)NC(=O)[C@@H](N)Cc1c[nH]cn1)[C@@H](C)O)C(C)C)C(C)C)C(=O)N[C@@H](C)C(=O)N[C@@H](CC(N)=O)C(=O)N[C@H](C(N)=O)[C@@H](C)O
For B1, the “hGLP-1R EC50 (pM)” value with human GLP-1 receptor was 39.5 pM. In the assay with human glucagon receptor, the “hGluc-R EC50 (pM)” value is 29.3 pM.

For the molecule H[Aib]HGS[αMeF]TSDVSK[αMeF]LDSRAAK([AEEA-AEEA-C20 diacid])D[αMeF]VQ[Aib]IANT-NH2 [Peptide 277], in the assay with human GLP-1 receptor, the “hGLP-1R EC50 (pM)” value was 49.5 pM. Further, in the assay with human glucagon receptor, the “hGluc-R EC50 (pM)” value turned out to be 57.3 pM.

As for H[Aib]HGS[αMeF]TSDVSK[αMeF]LDSRAAK([γGlu-γGlu-C20 diacid])D[αMeF]VQ[Aib]IANT-NH2 [Peptide 275], in the assay with human GLP-1 receptor, the “hGLP-1R EC50 (pM)” value was 111 pM. Further, the “hGluc-R EC50 (pM)” value with human glucagon receptor is 175 pM.

Take H[Aib]HGS[αMeF]TSDVSK[αMeF]LDSRAAK([γGlu-γGlu-C18 diacid])D[αMeF]VQ[Aib]IANT-NH2 [Peptide 270]: the “hGLP-1R EC50 (pM)” value with human GLP-1 receptor came out at 24.4 pM. In the assay with human glucagon receptor, the “hGluc-R EC50 (pM)” value came to 31.3 pM.

For the molecule H[Aib]HGS[αMeF]TSDVSK[αMeF]LDSRAAK([AEEA-AEEA-γGlu-γGlu-C20 diacid])DFVQWIANT-NH2 (not fully specified) [Peptide 290], the “hGLP-1R EC50 (pM)” value in the assay with human GLP-1 receptor turned out to be 347 pM. Moreover, in the assay with human glucagon receptor, the “hGluc-R EC50 (pM)” value was determined as 260 pM.

In the case of H[Aib]HGS[αMeF]TSDVSK[αMeF]LDSRAAK([AEEA-γGlu-AEEA-γGlu-C20 diacid])D[αMeF]VQ[Aib]IANT-NH2 [Peptide 266], in the assay with human GLP-1 receptor, the “hGLP-1R EC50 (pM)” value stood at 66.5 pM. Also, the “hGluc-R EC50 (pM)” value in the assay with human glucagon receptor was found to be 293 pM.

H[Aib]HGS[αMeF]TSDVSK[αMeF]LDSRAAK([AEEA-AEEA-γGlu-C18 diacid])D[αMeF]VQ[Aib]IANT-NH2 [Peptide 284]: the “hGLP-1R EC50 (pM)” value with human GLP-1 receptor was determined as 43.4 pM. The “hGluc-R EC50 (pM)” value with human glucagon receptor was 119 pM.

Take H[Aib]HGS[αMeF]TSDVSK[αMeF]LDSRAAK([AEEA-C20 diacid])D[αMeF]VQ[Aib]IANT-NH2 [Peptide 278]: in the assay with human GLP-1 receptor, the “hGLP-1R EC50 (pM)” value was 78.9 pM. For the same molecule, the “hGluc-R EC50 (pM)” value in the assay with human glucagon receptor came out at 83.5 pM.

In the case of H[Aib]HGS[αMeF]TSDVSK[αMeF]LDSRAAK([AEEA-AEEA-γGlu-C20 diacid])D[αMeF]VQ[Aib]IANT-NH2 [Peptide 280], the “hGLP-1R EC50 (pM)” value with human GLP-1 receptor worked out at 78.3 pM. Further, the “hGluc-R EC50 (pM)” value with human glucagon receptor was 155 pM.

With H[Aib]HGS[αMeF]TSDVSK[αMeF]LDSRAAK([AEEA-AEEA-γGlu-C18 diacid])DFVQ[Aib]IANT-NH2 [Peptide 287], the “hGLP-1R EC50 (pM)” value with human GLP-1 receptor is 27.5 pM. Further, the “hGluc-R EC50 (pM)” value with human glucagon receptor was 26.5 pM.

H[Aib]HGS[αMeF]TSDVSK[αMeF]LDSRAAK([AEEA-γGlu-γGlu-C18 diacid])D[αMeF]VQ[Aib]IANT-NH2 [Peptide 274]: in the assay with human GLP-1 receptor, the “hGLP-1R EC50 (pM)” value is 27.1 pM. Moreover, the “hGluc-R EC50 (pM)” value in the assay with human glucagon receptor amounted to 31.3 pM.

In the case of HSHGS[αMeF]TSDVSK[αMeF]LDSRAAK([AEEA-AEEA-γGlu-C18 diacid])D[αMeF]VQ[Aib]IANT-NH2 [Peptide 285], the “hGLP-1R EC50 (pM)” value in the assay with human GLP-1 receptor is 301 pM. In addition, the “hGluc-R EC50 (pM)” value with human glucagon receptor is 87 pM.

B2: Peptide 271 (peptide)
peptide: H[Aib]HGS[αMeF]TSDVSK[αMeF]LDSRAAK([γGlu-C18 diacid])D[αMeF]VQ[Aib]IANT-NH2
modifications: N-terminus assumed
SMILES: CC[C@H](C)[C@H](NC(=O)C(C)(C)NC(=O)[C@H](CCC(N)=O)NC(=O)[C@@H](NC(=O)[C@](C)(Cc1ccccc1)NC(=O)[C@H](CC(=O)O)NC(=O)[C@H](CCCCNC(=O)CC[C@H](NC(=O)CCCCCCCCCCCCCCCCC(=O)O)C(=O)O)NC(=O)[C@H](C)NC(=O)[C@H](C)NC(=O)[C@H](CCCNC(=N)N)NC(=O)[C@H](CO)NC(=O)[C@H](CC(=O)O)NC(=O)[C@H](CC(C)C)NC(=O)[C@](C)(Cc1ccccc1)NC(=O)[C@H](CCCCN)NC(=O)[C@H](CO)NC(=O)[C@@H](NC(=O)[C@H](CC(=O)O)NC(=O)[C@H](CO)NC(=O)[C@@H](NC(=O)[C@](C)(Cc1ccccc1)NC(=O)[C@H](CO)NC(=O)CNC(=O)[C@H](Cc1c[nH]cn1)NC(=O)C(C)(C)NC(=O)[C@@H](N)Cc1c[nH]cn1)[C@@H](C)O)C(C)C)C(C)C)C(=O)N[C@@H](C)C(=O)N[C@@H](CC(N)=O)C(=O)N[C@H](C(N)=O)[C@@H](C)O
In the case of B2, the “hGLP-1R EC50 (pM)” value in the assay with human GLP-1 receptor is 54.6 pM. In addition, in the assay with human glucagon receptor, the “hGluc-R EC50 (pM)” value stood at 28 pM.

H[Aib]HGS[αMeF]TSDVSK[αMeF]LDSRAAK([γGlu-C20 diacid])D[αMeF]VQ[Aib]IANT-NH2 [Peptide 276]: the “hGLP-1R EC50 (pM)” value with human GLP-1 receptor came out at 143 pM. For the same molecule, the “hGluc-R EC50 (pM)” value in the assay with human glucagon receptor is 91.4 pM.

In the case of H[Aib]HGS[αMeF]TSDVSK[αMeF]LDSRAAK([AEEA-AEEA-γGlu-γGlu-C20 diacid])D[αMeF]VQ[Aib]IANT-NH2 [Peptide 281], the “hGLP-1R EC50 (pM)” value with human GLP-1 receptor amounted to 155 pM. The “hGluc-R EC50 (pM)” value with human glucagon receptor worked out at 1040 pM.

Take H[Aib]HGS[αMeF]TSDVSK[αMeF]LDSRAAK([AEEA-AEEA-C18 diacid])D[αMeF]VQ[Aib]IANT-NH2 [Peptide 272]: the “hGLP-1R EC50 (pM)” value with human GLP-1 receptor was 15.7 pM. Further, the “hGluc-R EC50 (pM)” value in the assay with human glucagon receptor amounted to 14.3 pM.

For H[Aib]HGS[αMeF]TSDVSK[αMeF]LDSRAAK([AEEA-AEEA-γGlu-γGlu-C20 diacid])D[αMeF]VQ[Aib]IANT-NH2 (not fully specified) [Peptide 282], the “hGLP-1R EC50 (pM)” value with human GLP-1 receptor is 1230 pM. Moreover, the “hGluc-R EC50 (pM)” value in the assay with human glucagon receptor was determined as 1140 pM.

Consider H[Aib]HGS[αMeF]TSDVSK[αMeF]LDSRAAKD[αMeF]VQWIANT-NH2 (not fully specified (residue 20); also: X13: αMePhe or Y (table)) [Peptide 289], for which the “hGLP-1R EC50 (pM)” value in the assay with human GLP-1 receptor came to 118 pM. Besides, the “hGluc-R EC50 (pM)” value with human glucagon receptor came to 148 pM.

B3: Peptide 269 (peptide)
peptide: H[Aib]HGS[αMeF]TSDVSK[αMeF]LDSRAAK([PEG4-γGlu-γGlu-C20 diacid])D[αMeF]VQ[Aib]IANT-NH2
modifications: N-terminus assumed
SMILES: CC[C@H](C)[C@H](NC(=O)C(C)(C)NC(=O)[C@H](CCC(N)=O)NC(=O)[C@@H](NC(=O)[C@](C)(Cc1ccccc1)NC(=O)[C@H](CC(=O)O)NC(=O)[C@H](CCCCNC(=O)CCOCCOCCOCCOCCNC(=O)CC[C@H](NC(=O)CC[C@H](NC(=O)CCCCCCCCCCCCCCCCCCC(=O)O)C(=O)O)C(=O)O)NC(=O)[C@H](C)NC(=O)[C@H](C)NC(=O)[C@H](CCCNC(=N)N)NC(=O)[C@H](CO)NC(=O)[C@H](CC(=O)O)NC(=O)[C@H](CC(C)C)NC(=O)[C@](C)(Cc1ccccc1)NC(=O)[C@H](CCCCN)NC(=O)[C@H](CO)NC(=O)[C@@H](NC(=O)[C@H](CC(=O)O)NC(=O)[C@H](CO)NC(=O)[C@@H](NC(=O)[C@](C)(Cc1ccccc1)NC(=O)[C@H](CO)NC(=O)CNC(=O)[C@H](Cc1c[nH]cn1)NC(=O)C(C)(C)NC(=O)[C@@H](N)Cc1c[nH]cn1)[C@@H](C)O)C(C)C)C(C)C)C(=O)N[C@@H](C)C(=O)N[C@@H](CC(N)=O)C(=O)N[C@H](C(N)=O)[C@@H](C)O
B3: the “hGLP-1R EC50 (pM)” value with human GLP-1 receptor worked out at 52 pM. Moreover, the “hGluc-R EC50 (pM)” value in the assay with human glucagon receptor was found to be 271 pM.

Turning to H[Aib]HGS[αMeF]TSDVSK[αMeF]LDSRAAK([AEEA-γGlu-γGlu-C20 diacid])D[αMeF]VQ[Aib]IANT-NH2 [Peptide 279], in the assay with human GLP-1 receptor, the “hGLP-1R EC50 (pM)” value is 86.5 pM. Further, in the assay with human glucagon receptor, the “hGluc-R EC50 (pM)” value came to 150 pM.
